Measurements published in article PMC9871560, “Truncated-semaphorin3A is a potential regulatory molecule to restore immune homeostasis in immune-mediated diseases” (Frontiers in Pharmacology, 2022).

B1: Truncated-sema3A (T-sema3A) (domain or fragment, human, UniProt Q14563 21-516, looked up)
chain: NYQNGKNNVPRLKLSYKEMLESNNVITFNGLANSSSYHTFLLDEERSRLYVGAKDHIFSFDLVNIKDFQKIVWPVSYTRRDECKWAGKDILKECANFIKVLKAYNQTHLYACGTGAFHPICTYIEIGHHPEDNIFKLENSHFENGRGKSPYDPKLLTASLLIDGELYSGTAADFMGRDFAIFRTLGHHHPIRTEQHDSRWLNDPKFISAHLISESDNPEDDKVYFFFRENAIDGEHCGKATHARIGQICKNDFGGHRSLVNKWTTFLKARLICSVPGPNGIDTHFDELQDVFLMNFKDPKNPVVYGVFTTSSNIFKGSAVCMYSMSDVRRVFLGPYAHRDGPNYQWVPYQGRVPYPRPGTCPSKTFGGFDSTKDLPDDVITFARSHPAMYNPVFPMNNRPIVIKTDVNYQFTQIVVDRVDAEDGQYDVMFIGTDVGTVLKVVSIPKETWYDLEEVLLEEMTVFREPTAISAMELSTKQQQLYIGSTAGVAQLPLHR
notes: signal peptide in the construct; human semaphorin3A, amino acids 1-516 of the parental sema3A, with S257C to make an artificial disulfide dimerization site; Secreted into the medium; Without reducing agent it runs as a homodimer (~140 kDa double band) together with some monomer (~68 kDa); also called truncated semaphorin3A; source: HEK293 stably expressing (lentiviral vector NSPI), serum-free …
B2: Parental semaphorin3A (P-sema3A) (ligand, human, UniProt Q14563 21-771, looked up)
chain: NYQNGKNNVPRLKLSYKEMLESNNVITFNGLANSSSYHTFLLDEERSRLYVGAKDHIFSFDLVNIKDFQKIVWPVSYTRRDECKWAGKDILKECANFIKVLKAYNQTHLYACGTGAFHPICTYIEIGHHPEDNIFKLENSHFENGRGKSPYDPKLLTASLLIDGELYSGTAADFMGRDFAIFRTLGHHHPIRTEQHDSRWLNDPKFISAHLISESDNPEDDKVYFFFRENAIDGEHSGKATHARIGQICKNDFGGHRSLVNKWTTFLKARLICSVPGPNGIDTHFDELQDVFLMNFKDPKNPVVYGVFTTSSNIFKGSAVCMYSMSDVRRVFLGPYAHRDGPNYQWVPYQGRVPYPRPGTCPSKTFGGFDSTKDLPDDVITFARSHPAMYNPVFPMNNRPIVIKTDVNYQFTQIVVDRVDAEDGQYDVMFIGTDVGTVLKVVSIPKETWYDLEEVLLEEMTVFREPTAISAMELSTKQQQLYIGSTAGVAQLPLHRCDIYGKACAECCLARDPYCAWDGSACSRYFPTAKRRTRRQDIRNGDPLTHCSDLHHDNHHGHSPEERIIYGVENSSTFLECSPKSQRALVYWQFQRRNEERKEEIRVDDHIIRTDQGLLLRSLQQKDSGNYLCHAVEHGFIQTLLKVTLEVIDTEHLEELLHKDDDGDGSKTKEMSNSMTPSQKVWYRDFMQLINHPNLNTMDEFCEQVWKRDRKQRRQRPGHTPGNSNKWKHLQENKKGRNRRTHEFERAPRSV
notes: human parental semaphorin3A; Secreted into the medium; The preparation holds monomer (~95 kDa), dimer (~160 kDa) and ~70 kDa fragments from cleavage by furin; also called parental sema3A; original sema3A; source: HEK293, serum-free culture medium, purified (Ni-NTA agarose)

What was measured:
[1] = biological target: the molecule itself; experiment: SDS-PAGE without reducing agent, immunoblot; purified proteins on SDS-PAGE with or without dithiothreitol, immunoblotted with polyclonal goat anti-human sema3A; monomer to disulfide-linked dimer
[2] = biological target: B1; experiment: ELISA; homemade ELISA; 5 ug/mL purified CD72 coated on a MaxiSorp plate overnight at 4 C; 0-25 ug/mL purified P- or T-sema3A added for 3 h at 4 C; detected with polyclonal goat anti-sema3A and anti-goat HRP; Kd from the one site total binding equation (GraphPad Prism); details: both partners purified
[3] = biological target: B2; experiment: as above; details: both partners purified

Row | Binder | stoichiometry N [1] | Kd [2] [nM] | Kd [3] [nM]
1 | B1 | 2 |  | 
2 | B2 | 2 |  | 
3 | CD72 recombinant protein, extracellular part (amino acids 117-359) (domain or fragment, UniProt P21854 117-359, looked up, CD72, extracellular part, amino acids 117-359; source: HEK293 stably expressing (lentiviral vector NSPI), purified (Ni-NTA agarose)) RYLQVSQQLQQTNRVLEVTNSSLRQQLRLKITQLGQSAEDLQGSRRELAQSQEALQVEQRAHQAAEGQLQACQADRQKTKETLQSEEQQRRALEQKLSNMENRLKPFFTCGSADTCCPSGWIMHQKSCFYISLTSKNWQESQKQCETLSSKLATFSEIYPQSHSYYFLNSLLPNGGSGNSYWTGLSSNKDWKLTDDTQRTRTYAQSSKCNKVHKTWSWWTLESESCRSSLPYICEMTAFRFPD |  | ~4.85 | ~7.3
